Columns and labels:
AfPiwi [1] = molecular target: T1, AfPiwi (UniProt O28951 1-427); experiment: ITC; target into AfPiwi-guide; 10 mM Mg2+; isolation 794 nM; ITC: 50 mM Tris pH 7.5, 150 mM KCl, 5% glycerol, 10 mM MgCl2, 1 mM DTT, 20 C; guide 3.5-24 uM in cell with 3-4 fold excess AfPiwi, target in syringe; conditions: protein: recombinant; A:G mismatch at guide position 4
T1 sequence: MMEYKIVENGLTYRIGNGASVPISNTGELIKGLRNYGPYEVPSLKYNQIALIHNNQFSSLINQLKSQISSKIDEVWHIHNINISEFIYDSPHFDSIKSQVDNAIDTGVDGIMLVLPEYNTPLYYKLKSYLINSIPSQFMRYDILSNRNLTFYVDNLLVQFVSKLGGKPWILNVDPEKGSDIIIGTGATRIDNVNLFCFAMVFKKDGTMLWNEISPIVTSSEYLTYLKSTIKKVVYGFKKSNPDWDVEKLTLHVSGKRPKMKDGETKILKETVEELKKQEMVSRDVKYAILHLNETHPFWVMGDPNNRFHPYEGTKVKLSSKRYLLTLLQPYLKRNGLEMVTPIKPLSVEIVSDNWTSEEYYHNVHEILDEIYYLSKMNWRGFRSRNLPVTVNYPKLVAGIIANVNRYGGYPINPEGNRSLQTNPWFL

AfPiwi [2] = molecular target: T1, AfPiwi; experiment: ITC; target into AfPiwi-guide; 10 mM Mg2+; isolation 3.6 nM; ITC: 50 mM Tris pH 7.5, 150 mM KCl, 5% glycerol, 10 mM MgCl2, 1 mM DTT, 20 C; guide 3.5-24 uM in cell with 3-4 fold excess AfPiwi, target in syringe; conditions: protein: recombinant; 11 bp, guide 3' overhang 1 nt
AfPiwi [3] = molecular target: T1, AfPiwi; experiment: ITC; target into AfPiwi-guide; 10 mM Mg2+; isolation 206 nM; ITC: 50 mM Tris pH 7.5, 150 mM KCl, 5% glycerol, 10 mM MgCl2, 1 mM DTT, 20 C; guide 3.5-24 uM in cell with 3-4 fold excess AfPiwi, target in syringe; conditions: protein: recombinant; T:G mismatch at guide position 8
AfPiwi [4] = molecular target: T1, AfPiwi; experiment: ITC; target into AfPiwi-guide; 10 mM Mg2+; isolation 1490 nM; ITC: 50 mM Tris pH 7.5, 150 mM KCl, 5% glycerol, 10 mM MgCl2, 1 mM DTT, 20 C; guide 3.5-24 uM in cell with 3-4 fold excess AfPiwi, target in syringe; conditions: protein: recombinant; T:G mismatch at guide position 10
AfPiwi [5] = molecular target: T1, AfPiwi; experiment: ITC; target into AfPiwi-guide; 10 mM Mg2+; isolation 14600 nM; ITC: 50 mM Tris pH 7.5, 150 mM KCl, 5% glycerol, 10 mM MgCl2, 1 mM DTT, 20 C; guide 3.5-24 uM in cell with 3-4 fold excess AfPiwi, target in syringe; conditions: protein: recombinant; one mismatch
AfPiwi [6] = molecular target: T1, AfPiwi; experiment: ITC; target into AfPiwi-guide; 10 mM Mg2+; isolation 1.83 uM; ITC: 50 mM Tris pH 7.5, 150 mM KCl, 5% glycerol, 10 mM MgCl2, 1 mM DTT, 20 C; guide 3.5-24 uM in cell with 3-4 fold excess AfPiwi, target in syringe; conditions: protein: recombinant
AfPiwi [7] = molecular target: T1, AfPiwi; experiment: ITC; target into AfPiwi-guide; 10 mM Mg2+; isolation 4600 nM; ITC: 50 mM Tris pH 7.5, 150 mM KCl, 5% glycerol, 10 mM MgCl2, 1 mM DTT, 20 C; guide 3.5-24 uM in cell with 3-4 fold excess AfPiwi, target in syringe; conditions: protein: recombinant
AfPiwi [8] = molecular target: T1, AfPiwi; experiment: ITC; target into AfPiwi-guide; 10 mM Mg2+; isolation 7520 nM; ITC: 50 mM Tris pH 7.5, 150 mM KCl, 5% glycerol, 10 mM MgCl2, 1 mM DTT, 20 C; guide 3.5-24 uM in cell with 3-4 fold excess AfPiwi, target in syringe; conditions: protein: recombinant; one mismatch
AfPiwi [9] = molecular target: T1, AfPiwi; experiment: ITC; target into AfPiwi-guide; 10 mM Mg2+; isolation 1280 nM; ITC: 50 mM Tris pH 7.5, 150 mM KCl, 5% glycerol, 10 mM MgCl2, 1 mM DTT, 20 C; guide 3.5-24 uM in cell with 3-4 fold excess AfPiwi, target in syringe; conditions: protein: recombinant; one mismatch
AfPiwi [10] = molecular target: T1, AfPiwi; experiment: ITC; target into AfPiwi-guide; 10 mM Mg2+; isolation 926 nM; ITC: 50 mM Tris pH 7.5, 150 mM KCl, 5% glycerol, 10 mM MgCl2, 1 mM DTT, 20 C; guide 3.5-24 uM in cell with 3-4 fold excess AfPiwi, target in syringe; conditions: protein: recombinant; T:G mismatch at guide position 1
AfPiwi [11] = molecular target: T1, AfPiwi; experiment: ITC; target into AfPiwi-guide; 10 mM Mg2+; isolation 725 nM in text, 990 nM in Table 2; ITC: 50 mM Tris pH 7.5, 150 mM KCl, 5% glycerol, 10 mM MgCl2, 1 mM DTT, 20 C; guide 3.5-24 uM in cell with 3-4 fold excess AfPiwi, target in syringe; conditions: protein: recombinant
AfPiwi [12] = molecular target: T1, AfPiwi; experiment: ITC; AfPiwi into preformed duplex; endothermic; ITC: 50 mM Tris pH 7.5, 150 mM KCl, 5% glycerol, 10 mM MgCl2, 1 mM DTT, 20 C; guide 3.5-24 uM in cell with 3-4 fold excess AfPiwi, target in syringe; conditions: protein: recombinant; blunt

B1: Fig 5A RNA A:G mismatch at position 4 (dsRNA)
RNA 1: UGUAGGUU
RNA 2: AACCGACA
modifications: guide 5' phosphate
Binder B1 has a Kd (AfPiwi [1]) of 1160 ± 260 nM.

B2: G12 guide / T11 target (dsDNA)
DNA 1: TGTAGGTTGCAT
DNA 2: TGCAACCTACA
modifications: guide (G12) 5' phosphate
Work on B2 yielded a Kd (AfPiwi [2]) of 8.4 nM.

B3: Fig 5F DNA T:G mismatch at position 8 (dsDNA)
DNA 1: TGTAGGTTGCAT
DNA 2: TGCGACCT
modifications: guide 5' phosphate
For B3, the Kd (AfPiwi [3]) was 672 ± 82 nM.

B4: Fig 5G DNA T:G mismatch at position 10 (dsDNA)
DNA 1: TGTAGGTTGTAT
DNA 2: ATGCAACC
modifications: guide 5' phosphate
In the case of B4, the Kd (AfPiwi [4]) is reported as 2850 ± 350 nM.

B5: Fig 5B RNA mismatch (dsRNA)
RNA 1: UUGUUUGU
RNA 2: ACAAGCA
modifications: guide 5' phosphate
B5 was tested, and the Kd (AfPiwi [5]) was 152 ± 16 nM.

B6: Fig 3C DNA guide / RNA target (seed) (DNA:RNA)
DNA: TGTAGGTT
RNA: AACCUAC
modifications: guide 5' phosphate
For B6, the Kd (AfPiwi [6]) was 28 nM.

B7: Fig 3B RNA guide / RNA target (seed) (dsRNA)
RNA 1: UUGUUUGU
RNA 2: ACAAACA
modifications: guide 5' phosphate
Binder B7 has a Kd (AfPiwi [7]) of 82.2 ± 2.7 nM.

B8: Fig 5E DNA mismatch (dsDNA)
DNA 1: TGTAGGTT
DNA 2: AACCTGCA
modifications: guide 5' phosphate
With B8 the Kd (AfPiwi [8]) was 452 ± 27 nM.

B9: Fig 5D RNA mismatch (dsRNA)
RNA 1: UGUAGGUU
RNA 2: ACCUGC
modifications: guide 5' phosphate
B9 gave a Kd (AfPiwi [9]) of 2030 ± 150 nM.

B10: Fig 5H DNA T:G mismatch at position 1 (dsDNA)
DNA 1: TGTAGGTT
DNA 2: AACCTACG
modifications: guide 5' phosphate
Work on B10 yielded a Kd (AfPiwi [10]) of 17 ± 1.1 nM.

B11: Fig 3A DNA guide / DNA target (seed) (dsDNA)
DNA 1: TGTAGGTT
DNA 2: AACCTACA
modifications: guide 5' phosphate
B11 showed a Kd (AfPiwi [11]) of 29.2 ± 2 nM.

B12: Fig S3 preformed DNA duplex (dsDNA)
DNA 1: TTGAGTTT
DNA 2: AAACTCAA
modifications: 5' phosphate on strand 1
B12: binds (AfPiwi [12]).

Source: article PMC2642989, “Enhancement of the Seed-Target Recognition Step in RNA Silencing by a PIWI/MID Domain Protein”
